Results reported in patent US20070014720A1.

Columns and labels:
[1] = target: human CD20 (human) (UniProt P11836); experiment: cell-based or functional assay
[2] = target: human CD20 (human) (UniProt P11836); experiment: FACS KD on SB cells expressing CD20 (GMF against mAb concentration, nonlinear fit)

Chain of human CD20 (human) (P11836 whole entry): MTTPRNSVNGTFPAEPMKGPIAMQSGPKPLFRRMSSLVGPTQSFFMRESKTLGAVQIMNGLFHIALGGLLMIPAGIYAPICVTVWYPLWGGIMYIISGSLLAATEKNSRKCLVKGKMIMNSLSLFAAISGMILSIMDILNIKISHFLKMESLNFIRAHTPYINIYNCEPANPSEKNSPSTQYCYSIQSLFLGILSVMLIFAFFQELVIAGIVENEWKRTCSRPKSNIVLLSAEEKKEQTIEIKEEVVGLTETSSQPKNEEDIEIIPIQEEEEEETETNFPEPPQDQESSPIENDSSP

“Rituxan (Rituximab, Genentech Inc.) (antibody)” was tested, and the % Lysis Daudi 0.001 µg/ml ADCC [1] was 33%, the % Lysis Daudi 1 µg/ml ADCC [1] was 95% and the % Lysis Raji 0.001 µg/ml ADCC [1] was 16%. The % Lysis Raji 1 µg/ml ADCC [1] was 62%, the % Lysis Ramos 0.001 µg/ml ADCC [1] was 5% and the % Lysis Ramos 1 µg/ml ADCC [1] was 78%. The EC50 µg/ml Daudi CDC [1] was 1.56 µg/mL, the EC50 µg/ml Raji CDC [1] was 0.31 µg/mL and the EC50 µg/ml Ramos Apoptosis Alamar Blue [1] was 0.222 µg/mL. The EC50 µg/ml Ramos Apoptosis Annexin V [1] was 2.59 µg/mL, the EC50 µg/ml Ramos Apoptosis Cell Titer Glo [1] was 0.576 µg/mL and the EC50 µg/ml Ramos Apoptosis WST-1 [1] was 0.0326 µg/mL. For the same substance, the EC50 µg/ml Ramos CDC [1] was 0.43 µg/mL and the Kd [2] was 8.1 nM.

Work on “B1 antibody (Beckman Coulter, Miami, Fla.)” yielded a Kd [2] of 34.1 nM.
